Data published in article PMC5670239, “Structural basis for mutually exclusive co-transcriptional nuclear cap-binding complexes with either NELF-E or ARS2” (Nature Communications, 2017).
Ends that are not written are not given here.

Key:
[1] = biological target: T1, m^7GTP-CBC (Homo sapiens, UniProt P52298+Q09161); test: ITC, binding to CBC in the presence of the cap analogue m^7GTP; settings: for Kd: ITC, 25 °C, 20 mM HEPES, 120 mM NaCl, 2 mM TCEP, pH 7.8, CBC bound to m^7GTP, mean ± SD of at least two independent experiments, SD
T1 construct: 6-histidine tag (pETM30 vector) (N, cleaved yes); made in house; host or cells: CBP20 in E. coli Rosetta 2; CBP80ΔNLS in High Five insect cells; heterodimer reconstituted on Ni-sepharose
T1 sequence (Q09161 20-790): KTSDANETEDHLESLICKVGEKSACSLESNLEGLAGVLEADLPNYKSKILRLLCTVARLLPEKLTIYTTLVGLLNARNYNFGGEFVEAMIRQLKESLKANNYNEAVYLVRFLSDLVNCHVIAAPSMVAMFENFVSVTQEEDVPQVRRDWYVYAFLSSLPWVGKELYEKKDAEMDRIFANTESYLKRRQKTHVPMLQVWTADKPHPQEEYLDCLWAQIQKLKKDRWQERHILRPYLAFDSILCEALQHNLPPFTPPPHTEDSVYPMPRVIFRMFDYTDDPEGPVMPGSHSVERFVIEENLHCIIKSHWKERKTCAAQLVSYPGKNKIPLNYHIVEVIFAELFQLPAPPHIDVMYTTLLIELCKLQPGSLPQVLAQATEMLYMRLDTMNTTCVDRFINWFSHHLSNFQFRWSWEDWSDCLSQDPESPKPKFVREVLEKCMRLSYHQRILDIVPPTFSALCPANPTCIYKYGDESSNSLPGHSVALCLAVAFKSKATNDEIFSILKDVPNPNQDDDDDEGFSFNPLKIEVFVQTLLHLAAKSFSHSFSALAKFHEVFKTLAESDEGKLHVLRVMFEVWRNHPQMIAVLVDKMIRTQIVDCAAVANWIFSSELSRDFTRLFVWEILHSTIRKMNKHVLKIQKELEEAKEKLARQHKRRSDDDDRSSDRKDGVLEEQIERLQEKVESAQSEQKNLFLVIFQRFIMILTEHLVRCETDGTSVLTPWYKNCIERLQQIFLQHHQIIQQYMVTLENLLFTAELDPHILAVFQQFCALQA
T1 sequence (P52298 1-156): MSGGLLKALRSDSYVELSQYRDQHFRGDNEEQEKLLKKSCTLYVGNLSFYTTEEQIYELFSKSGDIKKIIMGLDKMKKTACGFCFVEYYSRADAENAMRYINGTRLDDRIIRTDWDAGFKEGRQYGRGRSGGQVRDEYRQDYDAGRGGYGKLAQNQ
Source text: (§1) hARS2 isoform-4 (871 residues, UniProt:Q9BXP5-4, also known as isoform-e, NP_001122326) constructs (residues 147–871, 147–845, 763–871, 763–845, 827–871) hNELF-E (NM_002904.5) (244–380, 244–360) and hPHAX (NM_032177.3) (1–394, 103–294, 103–308, 103–327) were cloned into pETM11 (EMBL). Full-length hNELF-E (1–380) was cloned into pFASTBac and CBP20 into pETM30. Primers used are given in Supplementary Table 2. All constructs were expressed in E. coli Rosetta 2 (Novagen), except full-length NELF-E and CBP80ΔNLS (CBP80 with residues 1–19 deleted[2]), which were expressed in High Five insect cells (Life Technology). Cells were harvested and lysed by sonication in lysis buffer containing 50 mM HEPES, pH 7.8, 300 mM NaCl, 10% (v/v) glycerol, 5 mM β-mercaptoethanol. Lysates were clarified by centrifugation and applied on an equilibrated Ni-sepharose column (GE Healthcare), washed with 20 mM imidazole in lysis buffer, and eluted with 300 mM imidazole in lysis buffer. While dialysing into 20 mM HEPES, pH 7.8, 120 mM NaCl, 10% (v/v) glycerol, 5 mM β-mercaptoethanol, the N-terminal 6-histidine-tag was cleaved with His-tagged Tobacco Etch Virus (TEV) protease overnight in a ratio 1:100 mg TEV per mg protein. The cleaved protein was further purified first on Ni-sepharose to remove TEV and then using an anion exchange column (HiTrap Q, GE Healthcare) followed if necessary by a Heparin column (GE Healthcare). In both cases a NaCl gradient from 50 to 800 mM in 20 mM HEPES 7.8, 0.5 mM tris(2-carboxyethyl)phosphine was used. To reconstitute the CBC heterodimer, cleared His-tagged CBP20 lysate was first immobilised on a Ni-sepharose column. After washing the column with lysis buffer, the cleared CBP80 lysate was applied to the column and further purification steps performed as described above. To remove the access of CBP20 the flow through of the Ni-column after TEV cleavage was loaded on an anion exchange column (HiTrap Q, GE Healthcare) and CBC eluted by a NaCl gradient as described above. In the text we refer to CBP80ΔNLS and CBP80ΔNLS-CBP20 as CBP80 and CBC, respectively. ARS2^845–871, NELF-E^354–380, and NELF-E^360–380 peptides, with or without FAM label at the N-terminus, were purchased from GenScript.

[2] = biological target: T2, CBC (Homo sapiens, UniProt P52298); test: ITC, binding to CBC without cap analogue; settings: ITC (MicroCal ITC200), 25 °C, 20 mM HEPES, 120 mM NaCl, 2 mM TCEP, pH 7.8, single-site fit; no cap analogue pre-bound; mean ± SD of at least two independent experiments; SD
T2 sequence (P52298 1-156): T1 sequence (P52298 1-156)
T2 sequence (Q09161 20-790 partner): T1 sequence (Q09161 20-790)
Source text: as §1, with “ARS2^845–871, NELF-E^354–380, and NELF-E^360–380 peptides, with or without FAM label at the N-terminus, were purchased from GenScript.” left out

[3] = biological target: m^7GTP-CBCmut; test: ITC, binding to mutated CBC in the presence of m^7GTP; parameters: species or system human; settings: with m^7GTP; for Kd: 25 °C, pH 7.8, CBCmut = CBP20 Y50A + CBP80 Y461A/R610E/H651A, mean ± SD of 2 experiments
Description: For CBC, a triple mutant in CBP80 (Y461A/R610E/H651A) was combined with various mutations in CBP20 (Y50A, Y50A/Y89A, or Y50A/Y89A/D107R).
ITC experiments were performed on a MicroCal ITC200 system (Malvern). Proteins were dialyzed overnight in buffer 20 mM HEPES, 120 mM NaCl, 2 mM tris(2-carboxyethyl)phosphine, pH 7.8. Injections of 1.5 µl protein A were added at an interval of 120–180 s into 205 µl of protein B in the cell, with a stirring speed of 800 rpm at 25 °C. The experimental data were analysed with MicroCal ITC Origin and were fitted to a single-site binding equation.

[4] = biological target: T1, m^7GTP-CBC; test: Fluorescence polarisation with FAM-labelled C-terminal peptides; assay type: binding; settings: 40 nM FAM peptide, 25 °C, n = 3; for Change of fluorescence polarisation on addition of labelled peptide to m^7GTP-CBC: 20 mM HEPES pH 7.8, 120 mM NaCl, 2 mM TCEP, ex 495 / em 515 nm
Description: (§2) Fig. 4 Incompatibility of ARS2-PHAX and NELF-E binding to CBC. a, b Competition on m^7GTP-sepharose. a In separate experiments, different amounts of ARS2^147–871 were added to preformed CBC–NELF–E complex immobilised on m^7GTP-sepharose. […] The fluorophore FAM is represented with a star. Note that different constructs of NELF-E and ARS2 were used in c, d, and e compared to f, g, and h and are therefore represented by slightly different shapes. Error bars show the SD of three experiments
Fluorescence anisotropy binding assays were performed with N-terminal FAM-labelled ARS2^845–871 and […] peptides. 40 nM peptides were titrated with increasing concentrations of proteins in 20 mM HEPES, pH 7.8, 120 mM NaCl, 2 mM tris(2-carboxyethyl)phosphine. For the competition assay CBC–ARS2 and CBC–NELF–E complexes were preformed in the presence of 25 µM m^7GTP using 40 nM ARS2^827–871(FAM) peptide together with 60 nM CBC and 40 nM NELF-E^354–380(FAM) peptide with 1 µM CBC. […] To observe a change in polarisation at reasonable protein concentrations, CBC and NELF-E^244–380 concentrations that saturate half of the FAM-labelled peptides were used to preform the individual complexes. Fluorescence polarisation was measured at 25 °C with a microplate reader (CLARIOstar BMG LABTECH) using an excitation wavelength of 495 nm and emission wavelength of 515 nm. For analysis the polarisation value for the peptide alone was subtracted from the measurements.

[5] = test system: CBC with triple mutants of both CBP20 and CBP80; test: m^7GTP-sepharose pull down with mutated CBC; assay type: binding, human; settings: CBP80 Y461A/R610E/H651A combined with CBP20 Y50A/Y89A/D107R
Source text: For CBC, a triple mutant in CBP80 (Y461A/R610E/H651A) was combined with various mutations in CBP20 (Y50A, Y50A/Y89A, or Y50A/Y89A/D107R). Binding of ARS2^827–871 to mutated CBC was first tested by m^7GTP-sepharose pull down (Supplementary Fig. 6).

[6] = biological target: T2, CBC; test: Size exclusion chromatography (gel filtration) co-elution with CBC, without m^7GTP; assay type: binding; settings: fractions analysed by SDS-PAGE, absence of m^7GTP
Description: (§3) Fig. 1 The interaction of CBC with ARS2 is enhanced in the presence of m^7GTP. a Schematic diagram of the domain structure of ARS2 based on ref. [26]. b Gel filtration chromatogram and Coomassie-stained SDS-PAGE of CBC-ARS2 in the presence and absence of m^7GTP. Purified recombinant CBC and ARS2^147–871 were mixed with (orange) or without (blue) 500 µM m^7GTP and subjected to gel filtration. Their elution profiles were overlaid (left) and single fractions analysed by SDS-PAGE (middle and right). Purified recombinant CBC and C-terminally truncated ARS2^147–845 were mixed with 500 µM m^7GTP and analysed in a similar way (bottom left). c ITC data and curve fit to derive the affinity of different ARS2 constructs for CBC. CBC or m^7GTP-CBC in the sample cell was titrated by ARS2. […] K D values and standard deviation represent the average from at least two independent experiments. d Sequence alignment of the C-terminus of ARS2. Conserved residues are highlighted in red. Figure made with ESPript[54]
(§4) Fig. 2 The interaction of CBC with NELF-E is enhanced in the presence of m^7GTP. a Schematic diagram of the domain structure of NELF-E. b Gel filtration chromatogram and Coomassie-stained SDS-PAGE of CBC-NELF-E in the presence and absence of m^7GTP. […] Their elution profiles were overlaid (left) and single fractions analysed by SDS-PAGE (middle and right). […]

[7] = biological target: T2, CBC; test: Size exclusion chromatography (gel filtration) co-elution with CBC, with m^7GTP; assay type: binding; settings: gel filtration with 500 µM m^7GTP, fractions analysed by SDS-PAGE
Description: as §3, §4

[8] = test system: CBC–PHAX complex immobilised on m^7GTP-sepharose; test: Displacement pull down on m^7GTP-sepharose, CBC–PHAX; assay type: binding, human; settings: different amounts added, 1 h at 4 °C, flow through and elution by SDS-PAGE
Description: as §2
CBC-NELF-E^1–380 or CBC-PHAX^1–394 were immobilised on m^7GTP-sepharose and incubated for 1 h at 4 °C with different amounts of ARS2^147–871 or NELF-E^1–380 in 20 mM HEPES, pH 7.8, 120 mM NaCl, 2 mM tris(2-carboxyethyl)phosphine, respectively. The flow through, as well as the elution from the beads after extensive washing, was analysed by SDS-PAGE followed by Coomassie staining.

For “ARS2 827–871 F871D: ARS2 827–871 construct with F871D mutation (GRGNYDAFRGQGGYPGKPRNRMVRGDPRAIVEYRDLDAPDDVDFD)”, the Kd [1] was 1800 ± 260 nM.

For “ARS2 827–871: human ARS2 isoform 4 residues 827–871, E. coli expressed construct (APYGAGRGNYDAFRGQGGYPGKPRNRMVRGDPRAIVEYRDLDAPD; isoform 4; UniProt Q9BXP5 827-871, looked up, fragment)”, the Kd [2] was 12200 ± 3500 nM, the Kd [1] was 1000 ± 200 nM and the “Enhancement of the interaction with CBC when m^7GTP is bound” value ([1]; ratio of ITC K D without / with m^7GTP) was “twelve-fold”. For the same substance, the Kd [3] was roughly 12000 nM, the Kd ([3]; SD) was 11600 ± 1100 nM and the “Reduction in affinity of CBCmut compared to wild-type CBC” value [3] was “twelvefold”. For the same substance, the “Change of polarisation on titration to m^7GTP-CBC-NELF-E^354–380(FAM)” value ([4]; competition, 1 µM CBC, 25 µM m^7GTP) was “decrease in polarisation” and the “Co-elution with mutated CBC in m^7GTP-sepharose pull down” value [5] was “abolished co-elution”.

For “ARS2^845–871(FAM): N-terminal FAM-labelled ARS2 845–871 peptide ({FAM}-YPGKPRNRMVRGDPRAIVEYRDLDAPD; UniProt Q9BXP5 845-871, looked up, fragment) [reference compound]”, the “Change of fluorescence polarisation on addition of labelled peptide to m^7GTP-CBC” value [4] was “increase in fluorescence polarisation, indicating binding”.

In the case of DKRTQIVYSDDVYKENLVDGF [NELF-E 360–380], the Kd [1] is reported as 3300 ± 1100 nM.

For “NELF-E^1–380: full-length human NELF-E, expressed in High Five insect cells”, the “Interaction with CBC by SEC” value [6] was “partially co-eluted”, the “Interaction with CBC by SEC in the presence of m^7GTP” value [7] was “stabilised the complex” and the “Displacement of PHAX from preformed CBC-PHAX^1–394 bound to m^7GTP-sepharose” value [8] was “resulted in the displacement of PHAX^1–394”.

“NELF-E^354–380(FAM): N-terminal FAM-labelled NELF-E 354–380 peptide ({FAM}-PKGCHRDKRTQIVYSDDVYKENLVDGF; UniProt P18615 354-380, looked up, fragment) [reference compound]” was tested, and the “Change of fluorescence polarisation on addition of labelled peptide to m^7GTP-CBC” value [4] was “increase in fluorescence polarisation, indicating binding”.

With “PHAX: full-length human PHAX (phosphorylated adaptor for RNA export), residues 1–394” the Kd [1] was 130 ± 50 nM.

“RNRMVRGDPRAIVEYRDLDAPDDVDFF [ARS2 845–871]” showed a Kd [1] of 1100 ± 160 nM.
